From patent publication US20190062442A1 (AstraZeneca / MedImmune, published 2019)
Positions count from the first letter of the chain named.

Key:
[1] = molecular target: full length cynomolgus PrP^c present on the cynomolgus CynoMK-1 cell line (cynomolgus monkey, UniProt P67992 23-230); assay: flow cytometry, antibody at 5 µg/ml
[2] = molecular target: T1, Human PrP^c_N1_Flag His protein (human, UniProt P04156 23-111)
T1 sequence: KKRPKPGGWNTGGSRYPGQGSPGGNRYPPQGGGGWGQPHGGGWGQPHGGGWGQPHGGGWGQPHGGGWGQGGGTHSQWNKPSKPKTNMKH

[3] = molecular target: T2, FLAG-tagged human PrP^c_N1 (recombinant N-terminal fragment of cellular prion protein, 23-111 amino-acids) (human, UniProt P04156 23-111)
T2 sequence: T1 sequence

[4] = molecular target: T3, FLAG-tagged Cynomolgus PrP^c_N1 (cynomolgus monkey, UniProt P67992 23-111); assay: direct HTRF binding assay
T3 sequence: T1 sequence with S75N, N78H, N86S

B1: PrP^c-O0059 Hu IgG1 (antibody, V domains shown)
VH: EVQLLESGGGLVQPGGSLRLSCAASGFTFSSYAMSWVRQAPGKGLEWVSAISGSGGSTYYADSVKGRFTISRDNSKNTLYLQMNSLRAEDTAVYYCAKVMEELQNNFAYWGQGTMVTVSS
VL: QSVLTQPPSASGTPGQRVTISCSGERSDIGINYVSWYQQLPGTAPKLLIYTDDRRPPGVPDRFSASKSGTSASLAISGLRSEDEADYYCEAWHDVLGHPVFGGGTKLTVL
binding result [1]: binds
Kd [2]: 23.5 pM
koff [2]: 1.33e-05 s⁻¹
kon [2]: 564000 M⁻¹ s⁻¹
IC50 [3]: 225 pM
binding result [4]: binds
